# How the values were obtained:
# purified protein = substrate: NC(=O)c1ncn([C@@H]2O[C@H](COP(=O)(O)O)[C@@H](O)[C@H]2O)c1NC=O; assay: purified protein; type: biochemical, Cryptococcus neoformans; settings: IMP cyclohydrolase activity, 100 mM Tris-Cl pH 7.5, 37 °C
# SEC-MALS = molecular target: the molecule itself; assay: SEC-MALS
protein,measurement,setting,value
"Cryptococcus neoformans AICAR transformylase/IMP cyclohydrolase (ATIC) (enzyme, UniProt J9VJP1 1-605, looked up) MSSEAPIALLSVYDKTGLLPFAKSLKELGFRLLGSGGTAKMIREAGMEIEDVSNITKAPEMLGGRVKTLHPAVHGGILSRDIPSDLADLATNKISPITLVVCNLYPFVLQTAKPDCTLAGAIEEIDIGGVTLLRAAAKNHGRVSIISSPSDYETIVAELRAKGEVSAETRRGLAIKAFEDTKSYDEAISDYFRKVYATPGVEEEMKAGAGVGYQRLGLRYGANPHQKPAQAFVEQGEMPIKVLSGSPGYINLLDALNSWALVKELAAGLDLPAAASFKHVSPAGAAVGLPLDERAAKVFGVEDLKELSPLACAYARARGADRMSSFGDFIALSHTVDTPTAKIISREVSDGVIAPGYEPEALEILSKKKGGKYCVLQMDPTYVPPEIETRQVYGISLQQKRNDCKIDESLFKNVVTANKDLPKSAVTDLVVATLALKYTQSNSVCYALNGTVIGLGAGQQSRIHCTRLAGDKADNWWLRHHPRVLELPFKKGTKRADKANAIDLFVTGQAFEAEGGERAQWESLFETVPEPLTKEEREKHMKELTGVACASDAFFPFPDNVHRAKRSGATYLAAPSGSIMDKECIKAADESNLVFCHTDLRLFHH",Km,purified protein,30 ± 1 µM
same,Vmax,purified protein,8.6 µmol/min/mg
same,kcat,purified protein,7.7 ± 0.1 s⁻¹
same,stoichiometry N,SEC-MALS,2
